Reference: patent US12258605B2, “Alkane oxidation by modified hydroxylases” (The California Institute of Technology, priority 2005, dated 2025)
Residue numbers refer to the chain shown, from its start. Names and notes keep the numbering of the source.

Tests used:
[1] = laurate; cited from earlier work
[2] = NADPH oxidation/consumption rates and coupling efficiency; format: biochemical
Experimental: NADPH oxidation rates were measured over 20 s at 25° C. using a BioSpec-1601 UV-Vis spectrophotometer (Shimadzu, Columbia, MD) and 1 cm pathlength cuvettes. […] The reaction was initiated by the addition of NADPH and the decrease in absorption at 340 nm was monitored. NADPH consumption rates were also measured without substrate (see Table 2).
The coupling efficiency is estimated from product formation rate/NADPH oxidation rate. In general, NADPH oxidation rates cannot be measured on the same time scale as ethanol formation rates.
For the data shown in Table 6 the initial NADPH consumption rates were measured over 15 seconds at 340 nm as nmol NADPH/min/nmol protein. Octane reactions contained 100 nM P450, 166 uM NADPH, and 4 mM octane in 1% ethanol and potassium phosphate buffer. […] Errors are at most 10%. Initial rates were measured by GC over 1 minute as nmol total products/min/nmol protein. Octane reactions contained 100 nM P450, 500 uM NADPH, and 4 mM octane in 1% ethanol and potassium phosphate buffer. Propane reactions contained 1 uM P450, 500 uM NADPH, and propane-saturated potassium phosphate buffer. Coupling was determined by ratio of product formation rate to NADPH consumption rate. Total turnover numbers were determined as nmol product/nmol enzyme. Octane reactions contained 10-25 nM P450, 500 uM NADPH, and 4 mM octane in 1% ethanol and potassium phosphate buffer. Propane reactions contained 10-25 nM protein, potassium phosphate buffer saturated with propane, and an NADPH regeneration system containing 100 uM NADP+, 2 U/mL isocitrate dehydrogenase, and 10 mM isocitrate.
For Table 13, total turnover numbers were determined as nmol product/nmol protein. […] The rates of product formation were measured by GC over 20 s as nmol total products/min/nmol protein. The reactions contained P450 (200 nM), NADPH (500 μM) and octane (2 mM) in ethanol (2%) and potassium phosphate buffer (0.1 M, pH 8.0). The rates of NADPH oxidation were measured over 20 s at 340 nm as nmol NADPH/min/nmol protein. The reactions contained P450 (200 nM), NADPH (160 μM), and octane (2 mM) in ethanol (2%) and potassium phosphate buffer (0.1 M, pH 8.0). The background NADPH oxidation rate (without substrate) rate was 220/min. The coupling efficiency is the ratio of product formation rate to NADPH oxidation rate.
The activity of BM-3-A328V on CM and other substrates such as HME, DME, and propane was further investigated by measuring product formation rate, cofactor consumption and coupling efficiency (Table 14). This mutant was also found to be capable to hydroxylate ethane to ethanol, although only for a total of about 5-10 turnovers. In Table 14 “consumption” rates are expressed as nmol NADPH/nmol enzyme/min and “product formation” rates are expressed as nmol product/nmol enzyme/min.

[3] = NADPH oxidation rates and coupling for propane hydroxylation (Example 4); format: biochemical; settings: propanol formation rate/NADPH oxidation rate
Experimental: Determination of NADPH oxidation rates. Initial rates of NADPH oxidation were measured using propane-saturated 100 mM KPi pH 8.0 buffer, purified enzyme at 50-200 nM, and a saturating concentration of NADPH (200 μM). The absorbance decrease at 340 nm was monitored at 25° C. in a BioSpec-1601 UV/VIS spectrophotometer (Shimadzu, Columbia, MD) for 1 min. Rates were calculated over the first 20 seconds using NADPH extinction coefficient ε340=6210 M^−1 cm^−1. Rates were determined in triplicate. Coupling values were calculated from the ratio of propanol formation rate to NADPH oxidation rate in the presence of propane.

B1: Wild-type BM-3: wild-type cytochrome P450 BM-3 from Bacillus megaterium, SEQ ID NO:1 (protein, listed as Bacillus megaterium)
chain: TIKEMPQPKTFGELKNLPLLNTDKPVQALMKIADELGEIFKFEAPGRVTRYLSSQRLIKEACDESRFDKNLSQALKFVRDFAGDGLFTSWTHEKNWKKAHNILLPSFSQQAMKGYHAMMVDIAVQLVQKWERLNADEHIEVPEDMTRLTLDTIGLCGFNYRFNSFYRDQPHPFITSMVRALDEAMNKLQRANPDDPAYDENKRQFQEDIKVMNDLVDKIIADRKASGEQSDDLLTHMLNGKDPETGEPLDDENIRYQIITFLIAGHETTSGLLSFALYFLVKNPHVLQKAAEEAARVLVDPVPSYKQVKQLKYVGMVLNEALRLWPTAPAFSLYAKEDTVLGGEYPLEKGDELMVLIPQLHRDKTIWGDDVEEFRPERFENPSAIPQHAFKPFGNGQRACIGQQFALHEATLVLGMMLKHFDFEDHTNYELDIKETLTLKPEGFVVKAKSKKIPLGGIPSPSTEQSAKKVRKKAENAHNTPLLVLYGSNMGTAEGTARDLADIAMSKGFAPQVATLDSHAGNLPREGAVLIVTASYNGHPPDNAKQFVDWLDQASADEVKGVRYSVFGCGDKNWATTYQKVPAFIDETLAAKGAENIADRGEADASDDFEGTYEEWREHMWSDVAAYFNLDIENSEDNKSTLSLQFVDSAADMPLAKMHGAFSTNVVASKELQQPGSARSTRHLEIELPKEASYQEGDHLGVIPRNYEGIVNRVTARFGLDASQQIRLEAEEEKLAHLPLAKTVSVEELLQYVELQDPVTRTQLRAMAAKTVCPPHKVELEALLEKQAYKEQVLAKRLTMLELLEKYPACEMKFSEFIALLPSIRPRYYSISSSPRVDEKQASITVSVVSGEAWSGYGEYKGIASNYLAELQEGDTITCFISTPQSEFTLPKDPETPLIMVGPGTGVAPFRGFVQARKQLKEQGQSLGEAHLYFGCRSPHEDYLYQEELENAQSEGIITLHTAFSRMPNQPKTYVQHVMEQDGKKLIELLDQGAHFYICGDGSQMAPAVEATLMKSYADVHQVSEADARLWLQQLEEKGRYAKDVWAG
In the case of B1, the Km [1] is listed as 210 µM and the catalytic efficiency [1] is listed as 190000 M⁻¹ s⁻¹.

B2: 35-E11: P450 BM-3 variant, SEQ ID NO:7: 53-5H substitutions plus E464G and I710T (protein)
chain: TIKEMPQPKTFGELKNLPLLNTDKPVQALMKIADELGEIFKFEAPGCVTRYLSSQRLIKEACDESRFDKNLSQALKFFRDFSGDGLFTSWTHEINWKKAHNILLPSFSQQAMKGYHAMMVDIAVQLVQKWERLNADEHIEVSEDMTRLTLDTIGLCGFNYRFNSFYRDQPHPFIISMVRALDEVMNKLQRANPDDPAYDENKRQCQEDIKVMNDLVDKIIADRKARGEQSDDLLTQMLNGKDPETGEPLDDGNISYQIITFLIAGHETTSGLLSFALYFLVKNPHVLQKVVEEAARVLVDPVPSYKQVKQLKYVGMVLNEALRLWPTFPAFSLYAKEDTVLGGEYPLEKGDEVMVLIPQLHRDKTIWGDDVEEFRPERFENPSAIPQHAFKPFGNGQRACIGQQFALHEATLVLGMMLKHFDFEDHTNYELDIKETLTLKPEGFVVKAKSKKIPLGGIPSPSTGQSAKKVRKKAENAHNTPLLVLYGSNMGTAEGTARDLADIAMSKGFAPQVATLDSHAGNLPREGAVLIVTASYNGHPPDNAKQFVDWLDQASADEVKGVRYSVFGCGDKNWATTYQKVPAFIDETLAAKGAENIADRGEADASDDFEGTYEEWREHMWSDVAAYFNLDIENSEDNKSTLSLQFVDSAADMPLAKMHGAFSTNVVASKELQQPGSARSTRHLEIELPKEASYQEGDHLGVIPRNYEGTVNRVTARFGLDASQQIRLEAEEEKLAHLPLAKTVSVEELLQYVELQDPVTRTQLRAMAAKTVCPPHKVELEALLEKQAYKEQVLAKRLTMLELLEKYPACEMKFSEFIALLPSIRPRYYSISSSPRVDEKQASITVSVVSGEAWSGYGEYKGIASNYLAELQEGDTITCFISTPQSEFTLPKDPETPLIMVGPGTGVAPFRGFVQARKQLKEQGQSLGEAHLYFGCRSPHEDYLYQEELENAQSEGIITLHTAFSRMPNQPKTYVQHVMEQDGKKLIELLDQGAHFYICGDGSQMAPAVEATLMKSYADVHQVSEADARLWLQQLEEKGRYAKDVWAG
modifications: mutant P450 35-E11 protein sequence
Work on B2 yielded a Coupling efficiency ([2]; Octane) of 64%, an NADPH oxidation rate ([2]; ethane) of about 520 min⁻¹ and a Coupling efficiency ([2]; ethane, product formation rate/NADPH oxidation rate) of 0.08%. For the same molecule, the NADPH oxidation rate ([2]; no substrate) was 390 min⁻¹, the NADPH oxidation rate ([2]; octane, 1% ethanol) was 660 min⁻¹ and the Coupling efficiency ([2]; propane) was 26%. It also gave an NADPH oxidation rate ([2]; propane) of 800 min⁻¹.

B3: P450PMO: P450 BM-3 variant, SEQ ID NO:125; 7-7 plus G443A and D698G; propane monooxygenase (protein)
chain: B2 chain with L52I, A74E, S82G, L188P, I366V, G443A, D698G
modifications: Mutant P450PMO protein sequence
notes: 7-7 plus G443A and D698G; propane monooxygenase
For B3, the “coupling efficiency for propane hydroxylation” value [3] was 90%.
